In the nanobody polyreactivity screen of Harvey et al. (2022):

assay: yeast display, Sf9 membrane polyspecificity reagent, FACS + sequencing; frameworks hold sequencing errors
Summary of the method: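 Using colony PCR, genes from sorted yeast display clones were amplified, then sequenced on MiSeq at 2 × 250 and filtered by CDR length. The clones had been stained with 10% biotinylated, detergent-solubilized Sf9 membrane reagent for 1 hour at 4 °C and sorted by FACS into low and high (top ~1%) gates on anti-HA and streptavidin fluorescence. Polyreactivity labels come from the gate of origin.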

Row | Sequence | polyreactivity (PSR sort gate)
1 | QVQLVESGGGLVQAGGSLRLSCAASGRTFRANTMGWYRQAPGKERELVAAISDRGGSTYYADSVKGRFTISRDNAKNTVYLQMNSLKPEDTAVYYCAARNTPAQLDYWGQGTQVTVSS | low polyreactivity
2 | QVQLVESGGGLVQAGGSLRLSCAASGRIIRAYAMGWYRQAPGKERELVAAISGGSNTNYADSVKGRFKISRDNAKNTVYLQMNSLKPDDTAVYYCAADAGYWESLWYPYGFYWGQGTQVSVSS | low polyreactivity
3 | QVQLVESGGGLVQAGGSLRLSCAASGSTFTFYTMGWYRQAPGKERELVAAITISAGSTYYADSVKGRFTFSRDNAKNTVYLQMNSLKPEDSAVYYCAADTYAHWGYYGSYYRDDYWGQGTQVTVSS | low polyreactivity
4 | QVQLVESGGGLVQAGGSLRLSCAASGSIFLSYGMGRYRQAPGKERELVATITWSGGSTTYADSVKGRFTISRDNAKNTVYLQMNSLKPEDTAVYYCIALYDVWITLLTYTSSDYWGQGTQVTVSS | low polyreactivity
5 | QFQLVESVGGLVQAGGSLRLSFAASGFNFDYNAMGWYRQAPGKERELVAAISNTGDSTYYADSVKGRFTISRDNAKNTVYLQMNSLQPEDTAVYYCAADSLFDDYWEYDYWGQGTQVTVSS | low polyreactivity
6 | QVQLVESGGGLVQAGGSLRLSCAASGIIFRRYAMGWYRQAPGKEREFVAAIRYTGGGTYYADSVKGRFTISRDNAKNTVYLQMNSLKPEDTAVYYCAARDRDTRNYYWGQGTQVTVSS | high polyreactivity
7 | QVQLVESRGALVQAGGSLRLSCAASGPIFDSYAMGWYRQATGKERELVATISRDSASTYYADSVKGRLTISRDNAKNTVYLQMNSLNPADTAVYYCSAGGSSSWAYNYWGHGTQVTVSS | low polyreactivity
8 | QVQLVESGGGLVQAGGSLRLSCAASGRIFKRNAMGWYRQAPGKDTELVAGISSSGGSTYYADSVKGRFTISRDNAKNTVYLQMNSLKPEDTAVYYCAAVGYGLRPSYDYWGQGTQVTVSS | high polyreactivity
9 | QVQLVESGGGLVQAGGSLRLSCAASGSTFAANAMGWYRQAPGKERELVAAITGSGGGTYYADSVKGRFTISRDNAKNTVYLQMNSLKPEDTAVYYCNTYYYWQYDWGQGTQVTVSS | high polyreactivity
10 | QVQLVESGGGLVQAGGSLRLSCAASGFTFGYYAMGWYRQAPGKERELVAAITYSGGSTYYADSVKGRFTISRDNAKNTVYLQMNSLKPEDTAVYYCNAYARRYYYGRWYGEFDYWGQGTQVTVSS | low polyreactivity
11 | QVQLVESGGGLDQAGGSLRLSCADSGSIFESYAMGWYRQAPGKERELVAAITKRGGSTYYADSVKGRFTISRDNAKNTVYLQMNSLKPEDTAVYYCNARWPGIGPIYDYWGQGTQVTVSS | low polyreactivity
12 | QVQLVESGGVLVQAGCSLRLSCAASGSTFYYNAMGWYRQAPRKERELVARISRSGGSTYADSVKGRFTISRDNAKNTVYLQMNSLKPEDTAVYYCYADAYGTPEFTSYAVRYDYWGQGTQVTVSS | low polyreactivity
13 | QDQLVESGGGIVQAGGTLRLSCAASGRTIGGYDMGWDRQAPGKERQLVAAIRTGGRTNYADSVKGRFTISRDNAKNTVYLQLNSLKPEDTAVYYCNARRRIADPRAGIYDYCGQGTQVTVSS | high polyreactivity
14 | QVQLVESGGGLVQAGGSLRLSCAASGSNFYDNAMGWYRQAPGKERELLAAITTSGDSTYYADSVKGPFTISRDNAKNTVYLQMNSLKPEDTAVYYCAARPRVRSSYRYYYWGQGTQVTVSS | high polyreactivity
15 | QVQLVESGGGLVQAGGSLRLSCAASGSTLPRYTMGWYRQAPGKERELVAAISFSGSSTYYADSVKGRFTISRVNAKNTVYLQMNSLKPEDTAVYYCRYGYNYWGQGTQVTVSS | high polyreactivity
16 | QVQLVESGGGLVQAGGSLRLSCAASGRTFILYTMGWYRQAPGKERELVAAITTGGSTSYADSVKGRVTISRDNAKNTVYLQMNSLKPEDTAVYYCNALSRLRYKPRLYDYWGQGTQVTVSS | low polyreactivity
17 | QVQLVESGGGLVQAGGSLRLSCAASGRTFRRYAMGWYRQAPGKERELVATITSNGGSTYYADSVKGRFTISRDNAKNTVYLQMNSLKPEDTAVYYCARDLTYYRSRYDYWGQGTQVTVSS | high polyreactivity
18 | QVQLVESGGGLDQAGGSLRLICAASGRTFRFNTMGWYRQAPGKERELVATISRRGGSTYYADSVKGRFTISRDNAKNTVYLLMNSLKPEDTAVYYCAVYGGSYRFDYWGQGTQVTVSS | high polyreactivity
19 | QVQRVASGGGLVQAGGSLRLSWAASGSIVVRYTMGWYRQAPGKERELVAGISSRGGSTYYADSVKGRFTISRDNAKNTVSLQLNSLTPEDTAVYYCAKERSYSRSGGTYYYWGQRTQVTVSS | high polyreactivity
20 | QVQLVESGGGLDQARGSLRLSCAASGTTIGGNAMGWYRQAPGKERELVAAIDSGGSTYADSVKGRFTISRDNAKKTVYVQMNSLKPEDTAVYYCAAVWEFVHFWSFDYWGQGTQVTVSS | low polyreactivity
21 | QVQLVESGGGLVQAGGSLRLSCSASGYTFYLYTMGWYRQAPGTERELVAAISGSGTSTYYADSVKGRFTISRDNAKNTVYLQMNSLKPEDTAVYYCAAEDYSRDVYSYYYWGQGTQVTVSS | low polyreactivity

Row | Sequence | polyreactivity (PSR sort gate)
22 | QVHLVESGGGLVQAGRSLRLICAASGSTFPTYAMGWYRQAPGKETELVAAISTRGGSTYYADSVKGRFTISRDNAKNTVYLQMNSVKPEDTAVYYCATGKTVGRYHYEYWGQGTQVTVSS | low polyreactivity
23 | QVQLVESGGGLVQAGGSLRLSCAASGRIFGTNSIGWYIQAPRKERELVSAISSSTSTNYADSVKGRFTISRDNAKNTVYLLMYSLKRDDTAFYYFDADELRTDWDYAQGYDYWGQGTQVTVSS | low polyreactivity
24 | QVQLVESGGGLVQAGGSLRLSCAASGRIFNWYVMGWYRQAPGKERELVAAINSGGITKYADSVKGRFTISRDNAKNTVYLQMNSLKPEDTAVYYCAAYYRRYDYDYWGQGTQVTVSS | high polyreactivity
25 | QVQLVESGGGLVQAGGSLRLSCAASGNTFWFYRMGWYRQAPGKERELVAAITSGGSTDYADSVKGRFTISRDNAKNTVYLQMNSLKPEDTAVYYCAAEPVAYYGSSYGYWGQGTQVTVSS | low polyreactivity
26 | QVQLVESGGGLVQAGGSLRLSCAASGYTFRHYVMGWYRQAPGKERELVAAITYSGGSTYYADSVKGRFTISRDNAKNTVYLQMNSLKPEDTAVYYCAARRRRSDPYDFWGQGTQVTVSS | high polyreactivity
27 | QVQLVESGGGLVQAGGSLRLSCAASGNTFPVYAMGWYRQAPGKERELVAAINTSGGSTYYADSVKGRFTISRDNAKYTVYLQMNSLKPEDTAVYYCAADWSYYGDELYYWGQGTQVTVSS | low polyreactivity
28 | QVQLLESGGGLVQAGGSLRLSCAASGLTFTAYVMGWYRHAPGKERELVAAISGGGSTYADSVKGRFTISGDNAKNTVSLQMNSLKPEDTAVYYCNADGWGDRFWSNFRFDYWGQGTQVTVSS | low polyreactivity
29 | QVQLLESGGGLVQSGGSLRLTCAASGFTFRGYAMGWYRQAPGKERELVAAISWNGGRTYADSVKGRFTITRDNAKYTVYLQMNSLKPEDTAVYYCNAVKFGATAYDYWGQGTQVTVSS | high polyreactivity
30 | QVHLVESGGGLVQAGGSLRLSCAASGSIFTVYTMGWYRQAHGKERELVAAINSRGGTTYYADSVKGRFTISRDYAKNTVYLQMNSLKPEDTAVYYCAAKQRPKSYGPVHYYWGQGTQVTVSS | high polyreactivity
31 | QVQLVESGGGLVQAGGSLRLSCAASGRTFAYYAMGWYKQAPGKERELVAAISWSGGSTYYADSVKGRFTISRDNAKYTVYLQMNSLKPEDTAVYYCNTLGGTEYGYWGQGTQVTVSS | high polyreactivity
32 | QVQLVESGGGLVQAGGSLRLSCAASGIIFSFYAMGWYRKAPGKERELVAAISQSGGSTYYADSVKGRFTISRDNAKNTVYLQMNSLKPEDTAVYYCAVAGWYGSEYWGQGTQVTVSS | high polyreactivity
33 | QVQLVESGGGLVQAGGSLRLSCAASGRIFYRYTMGWYRQAPGKERELVAVIRSGGRTYYADSVKGRFSISRDNAKNTLSLQMNSLKPEDTSVYYCATLVRVLTLRSDLNLYGYWGQGTQVTVSS | high polyreactivity
34 | QVQLVESGGGLVQAGGSLRLSCAASASINSNYVMGWNRQAPGKERELVAAITRRGGRTYYADSVKGRFTISRDNAKNTVYLQMNSLKPEDTAVYYCAAERYPEAGSPYGTAEMDYWGQGTQVPVSS | low polyreactivity
35 | QVQLVESGGGLVQAGGSLRLSCPASGSIFQYYAMGWYRQAPGKERELVAAISSGGRTNYADSVKGRFTISRDNAKNTVYLQMNSLKPEATAVYYCAAARYYYQVYRWEYDYWGQGTQVTVSS | high polyreactivity
36 | QVQLVESGGGLVQAGGSLRLSSAASGIIFKSYAMGWYRPAPGKERELVSAISGGGDTYYAYSVKGRFTISRDNAKNTVNLQMNSLKPEDTAVYYCNTDGSQGTIIAIFVKYDYWGQGTQVTVSS | low polyreactivity
37 | QVQLVESGGVLVQAGGSLRLSCAASGSIFERYDMGWYRQAPGKERELVAAITSAGITYYADSVKGRFTISRDNAKNNVYLQMNSLKPEDTAVYYCAAQGRRGAPYRHVNEGDYWGQGTQVTVSS | low polyreactivity
38 | QVQLVESGGGLVQAGGSLRLSCAASGRTSGINAMGWYRQSPGKERELVAAISSGGRTYYADSVKGRFTISRDNAKNTVYLQMNSLKPEDTAVYYCAAVIHWSLYRRMEYWGQGTQVTVSS | high polyreactivity
39 | QVHLGESGGRLVQPGGSLRLSCAASGCTFCPYAMGWSRQAPGKARELVAAISNGGGPKYADSVKCRFTISRDNAKHTVYLQMNSLKPEDTAVYYCAKTLWTGRAWYDYWGQGTQVTVSS | high polyreactivity
40 | QDQLVESGGGLVQAGGSLRLTCAASGGIFWSYAMGWYRQAPGKERDLVAAINWNAGSTYYADSVKGRFTISRDNAKNTVYLQMNSLKPEDTAVYYCAKVQWHLYDWGQGTQVTVSS | high polyreactivity
41 | QVQLVESGGGLVQAGGSLRLSCAASGSIFYQYAMGWYRQAPGKERELVAAISRSGGSTYYADSVKGRFTISRDNAKNTVYLQMISLKPEDTAVYYCAARAVRAAYDYWGLGTQVTVSS | low polyreactivity
